# Experimental data reported in paper PMC9905591, “A single point mutation expands the applicability of ostreolysin A6 in biomedicine” (Scientific Reports, 2023).
# T1: OlyA6 mutant E69A (Pleurotus ostreatus, UniProt P83467 1-138, E69A)
# T1 sequence: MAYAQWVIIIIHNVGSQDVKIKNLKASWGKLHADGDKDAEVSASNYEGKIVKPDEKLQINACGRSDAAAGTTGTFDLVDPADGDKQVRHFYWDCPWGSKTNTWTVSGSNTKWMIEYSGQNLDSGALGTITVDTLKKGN
# Biological target: T1, OlyA6 mutant E69A
# Assay: cell-based or functional assay
binder,measurement,value
"Δ48PlyB (pleurotolysin B) (domain or fragment, Pleurotus ostreatus, UniProt Q5W9E8 49-523, looked up) SQAGDTLNDVIQDPTRRNKLINDNNLLKGIIMGRDGPVPSSRELIVRPDTLRAIINNRATIETTTMEAEFTETLMESNYNSASVKVSAPFITANSEYSESSSFKNTETEKSMYTSSRYLFPQGRIDFTTPDSGFDDVIKLSPQFTSGVQAALAKATGTEKREALQNLFQEYGHVFRTKVHIGGVLSAHTMETFSRSENETEVKQDVKAGLEGAVKGWGGGATAGHGNTQGTITTSQNRKLNVKYIVNGGDYTKIQNTEEWVASTNQSEHWRVIEVTEVTAVADLLPQPIRGQVKDLLKPLLGKWVDVEKVPGLESLPVSVYRPKGAIPAGWFWLGDTADASKALLVKPTLPARSGRNPALTSLHQGSGMTEQPFVDLPQYQYLSTYFGSFAHDTPPGSTLRGLRPDHVLPGRYEMHGDTISTAVYVTRPVDVPFPEDECFDLKSLVRVKLPGSGNPPKPRSALKKSMVLFDSGEK","hazard ratio against buffer, Kaplan-Meier survival of Colorado potato beetle larvae on E69A/PlyB-treated leaf discs",2.76
